Assay results published in paper PMC9998502, “Functional selectivity of EM-2 analogs at the mu-opioid receptor” (Frontiers in Pharmacology, 2023).
pKi: −log10 of the molar value.

Legend:
[1] = target: human delta opioid receptor (human) (UniProt P41143)
[2] = target: human delta opioid receptor (human) (UniProt P41143); assay: radioligand binding; displacement of [3H]deltorphin-2 from commercial membranes of CHO cells transfected with the human recombinant delta opioid receptor; Ki, mean ± SEM, n ≥ 3
[3] = target: human kappa opioid receptor (human) (UniProt P41145); assay: radioligand binding; displacement of [3H]U-69593 from commercial membranes of CHO cells transfected with the human recombinant kappa opioid receptor; Ki, mean ± SEM, n ≥ 3
[4] = target: RLuc-tethered human mu receptor fusion protein (human) (UniProt P35372)
[5] = target: human mu opioid receptor (human) (UniProt P35372)
[6] = target: human mu opioid receptor (human) (UniProt P35372); assay: radioligand binding; displacement of [3H]DAMGO from commercial membranes of CHO cells transfected with the human recombinant mu opioid receptor; Ki, mean ± SEM, n ≥ 3
[7] = target: human kappa opioid receptor (human) (UniProt P41145)

calcium mobilization, CHO cells with delta receptor and GαqG66Di5: α (Emax ratio to the standard agonist) [1] | pKi [2] | pKi [3] | BRET of mu-RLuc with Gβ1-RGFP promoted by the peptide, SH-SY5Y membranes: Emax (EM-2 = 1.00) [4] | calcium mobilization, CHO cells with human mu receptor and Gαqi5: α (Emax ratio to the standard agonist) [5] | pKi [6] | BRET of mu-RLuc with β-arrestin 2-RGFP promoted by the peptide, living SH-SY5Y cells: Emax (EM-2 = 1.00) [4] | BRET of mu-RLuc with β-arrestin 2-RGFP promoted by the peptide, living SH-SY5Y cells: Emax (EM-2 = 1.00), forced to 1 [4] | calcium mobilization, CHO cells with human kappa receptor and Gαqi5: α (Emax ratio to the standard agonist) [7] | Substance
1 | – | – | – | – | – | – | – | – | DPDPE (peptide)
– | 6.25 | 6.08 | – | – | – | – | – | – | EM-2 analog 1 (Dmt-Pro-Phe-Phe-NH2) (peptide)
– | 6.17 | < 6.00 | 0.83 | 0.64 | 7.75 | – | – | – | EM-2 analog 2 (Tyr-(R)-Pip-Phe-Phe-NH2) (peptide)
0.56 | 7.43 | 7.14 | 0.83 | 0.7 | 8.41 | – | – | – | EM-2 analog 3 (Dmt-(R)-Pip-Phe-Phe-NH2) (peptide)
– | < 6.00 | < 6.00 | 1.11 | 0.99 | 9.07 | 1.3 | – | – | EM-2 analog 4 (Tyr-(R)-Nip-Phe-Phe-NH2) (peptide)
– | 6.23 | 6.25 | 1.11 | 1 | 9.85 | 1.26 | – | – | EM-2 analog 5 (Dmt-(R)-Nip-Phe-Phe-NH2) (peptide)
– | < 6.00 | < 6.00 | 0.86 | 0.88 | 7.33 | – | 1 | – | EM-2 analog 6 (Tyr-(R)-β2-Ala-Phe-Phe-NH2) (peptide)
– | 6.24 | 6.09 | 0.98 | 0.95 | 9.51 | 0.61 | – | – | EM-2 analog 7 (Dmt-(R)-β2-Ala-Phe-Phe-NH2) (peptide)
– | < 6.00 | < 6.00 | 0.96 | 0.99 | 9.36 | 1.12 | – | – | EM-2 analog 8 (Tyr-(R)-β3-Ala-Phe-Phe-NH2) (peptide)
– | 6.54 | 6.05 | 1.05 | 1 | 9.85 | 1.16 | – | – | EM-2 analog 9 (Dmt-(R)-β3-Ala-Phe-Phe-NH2) (peptide)
– | – | – | – | – | – | – | – | 1 | dynorphin A (peptide)
– | < 6.00 | < 6.00 | – | – | – | – | – | – | endomorphin-2 (Tyr-Pro-Phe-Phe-NH2) (peptide)

Substance | calcium mobilization, CHO cells with delta receptor and GαqG66Di5: α (Emax ratio to the standard agonist) [1] | pKi [2] | pKi [3] | BRET of mu-RLuc with Gβ1-RGFP promoted by the peptide, SH-SY5Y membranes: Emax (EM-2 = 1.00) [4] | calcium mobilization, CHO cells with human mu receptor and Gαqi5: α (Emax ratio to the standard agonist) [5] | pKi [6] | BRET of mu-RLuc with β-arrestin 2-RGFP promoted by the peptide, living SH-SY5Y cells: Emax (EM-2 = 1.00) [4] | BRET of mu-RLuc with β-arrestin 2-RGFP promoted by the peptide, living SH-SY5Y cells: Emax (EM-2 = 1.00), forced to 1 [4] | calcium mobilization, CHO cells with human kappa receptor and Gαqi5: α (Emax ratio to the standard agonist) [7]
EM-2 analog 10 (Tyr-Pro-(R)-β2-1-Nal-Phe-NH2) (peptide) | – | – | – | 0.68 | – | – | – | – | –
EM-2 analog 11 (Dmt-Pro-(R)-β2-1-Nal-Phe-NH2) (peptide) | – | – | – | 0.81 | – | – | – | – | –
EM-2 analog 12 (Tyr-Pro-(R)-β3-1-Nal-Phe-NH2) (peptide) | – | – | – | 0.96 | – | – | 0.73 | – | –
EM-2 analog 13 (Dmt-Pro-(R)-β3-1-Nal-Phe-NH2) (peptide) | – | – | – | 0.84 | – | – | 0.37 | – | –
